Data from patent publication US20230212319A1, “NOVEL ANTIGEN BINDING DOMAINS AND SYNTHETIC ANTIGEN RECEPTORS INCORPORATING THE SAME” (University of Southern California, priority 2020, published 2023).

B1: 22044 (protein)
chain: MALPVTALLLPLALLLHAARPQLQLQESGPGLVKPSETLSLTCTVSGDSISSGDYYWGWIRQPPGKGLEWIGHIYYSGVTYYNPSLKSRVTISVDTSRNQFSLKLSSVTAADTAVYYCTREDSSNWRSRGQGTLVTVSSLEGSMDPKDNCSKDANDTLLLQLTNTSAYYMYLLLLLKSVVYFAIITCCLLRRTAFCCNGEKSRAKRSGSGATNFSLLKQAGDVEENPGPTSMDWIWRILFLVGAATGAHSFEVQLVESGGGVVQPGRSLRLSCAASGFSFSGYGMHWVRQAPGKGLEWVAYISYDGSNKYYADSVKGRFTISRDNSKNTLYLQMNSLRAEDTAVYYCAKDPAWGLRLGESSSYDFDIWGQGTMVTVSSTRDKTHTCPPCPAIPEDTFFPSPESSCDVKLVEKSFETDTNLNFQNLSVIGFRILLLKVAGFNLLMTLRLWSSRAKRSGSGVKQTLNFDLLKLAGDVESNPGPSRGHMTEYKPTVRLATRDDVPRAVRTLAAAFADYPATRHTVDPDRHIERVTELQELFLTRVGLDIGKVWVADDGAAVAVWTTPESVEAGAVFAEIGPRMAELSGSRLAAQQQMEGLLAPHRPKEPAWFLATVGVSPDHQGKGLGSAVVLPGVEAAERAGVPAFLETSAPRNLPFYERLGFTVTADVEVPEGPRTWCMTRKPGA
B2: 22042 (protein)
chain: MALPVTALLLPLALLLHAARPQLQLQESGPGLVKPSETLSLTCTVSGDSISSGDYYWGWIRQPPGKGLEWIGHIYYSGVTYYNPSLKSRVTISVDTSRNQFSLKLSSVTAADTAVYYCTREDSSNWRSRGQGTLVTVSSLEGSADCGFTSESYQQGVLSATILYEILLGKATLYAVLVSALVLMAMVKRKDSRGRAKRSGSGATNFSLLKQAGDVEENPGPTSMDWIWRILFLVGAATGAHSFEVQLVESGGGVVQPGRSLRLSCAASGFSFSGYGMHWVRQAPGKGLEWVAYISYDGSNKYYADSVKGRFTISRDNSKNTLYLQMNSLRAEDTAVYYCAKDPAWGLRLGESSSYDFDIWGQGTMVTVSSTRDKTHTCPPCPAIPEDTFFPSPESSCDVKLVEKSFETDTNLNFQNLSVIGFRILLLKVAGFNLLMTLRLWSSRAKRSGSGVKQTLNFDLLKLAGDVESNPGPSRGHMTEYKPTVRLATRDDVPRAVRTLAAAFADYPATRHTVDPDRHIERVTELQELFLTRVGLDIGKVWVADDGAAVAVWTTPESVEAGAVFAEIGPRMAELSGSRLAAQQQMEGLLAPHRPKEPAWFLATVGVSPDHQGKGLGSAVVLPGVEAAERAGVPAFLETSAPRNLPFYERLGFTVTADVEVPEGPRTWCMTRKPGA
B3: 22045 (protein)
chain: MALPVTALLLPLALLLHAARPQLQLQESGPGLVKPSETLSLTCTVSGDSISSGDYYWGWIRQPPGKGLEWIGHIYYSGVTYYNPSLKSRVTISVDTSRNQFSLKLSSVTAADTAVYYCTREDSSNWRSRGQGTLVTVSSLEGSPIKTDVITMDPKDNCSKDANDTLLLQLTNTSAYYMYLLLLLKSVVYFAIITCCLLRRTAFCCNGEKSRAKRSGSGATNFSLLKQAGDVEENPGPTSMDWIWRILFLVGAATGAHSFEVQLVESGGGVVQPGRSLRLSCAASGFSFSGYGMHWVRQAPGKGLEWVAYISYDGSNKYYADSVKGRFTISRDNSKNTLYLQMNSLRAEDTAVYYCAKDPAWGLRLGESSSYDFDIWGQGTMVTVSSTRDKTHTCPPCPAIPEDTFFPSPESSCDVKLVEKSFETDTNLNFQNLSVIGFRILLLKVAGFNLLMTLRLWSSRAKRSGSGVKQTLNFDLLKLAGDVESNPGPSRGHMTEYKPTVRLATRDDVPRAVRTLAAAFADYPATRHTVDPDRHIERVTELQELFLTRVGLDIGKVWVADDGAAVAVWTTPESVEAGAVFAEIGPRMAELSGSRLAAQQQMEGLLAPHRPKEPAWFLATVGVSPDHQGKGLGSAVVLPGVEAAERAGVPAFLETSAPRNLPFYERLGFTVTADVEVPEGPRTWCMTRKPGA
B4: 22294 (protein)
chain: MALPVTALLLPLALLLHAARPQLQLQESGPGLVKPSETLSLTCTVSGDSISSGDYYWGWIRQPPGKGLEWIGHIYYSGVTYYNPSLKSRVTISVDTSRNQFSLKLSSVTAADTAVYYCTREDSSNWRSRGQGTLVTVSSLEGSIPEDTFFPSPESSCDVKLVEKSFETDTNLNFQNLSVIGFRILLLKVAGFNLLMTLRLWSSRAKRSGSGVKQTLNFDLLKLAGDVESNPGPTSATMDWIWRILFLVGAATGAHSEFMDPDLEIRAAFLRQRNTALRTEVAELEQEVQRLENEVSQYETRYGPLGGGKTRGSGRADCGFTSESYQQGVLSATILYEILLGKATLYAVLVSALVLMAMVKRKDSRGRAKRSGSGATNFSLLKQAGDVEENPGPSRGHMTEYKPTVRLATRDDVPRAVRTLAAAFADYPATRHTVDPDRHIERVTELQELFLTRVGLDIGKVWVADDGAAVAVWTTPESVEAGAVFAEIGPRMAELSGSRLAAQQQMEGLLAPHRPKEPAWFLATVGVSPDHQGKGLGSAVVLPGVEAAERAGVPAFLETSAPRNLPFYERLGFTVTADVEVPEGPRTWCMTRKPGA
B5: 22053 (protein)
chain: MALPVTALLLPLALLLHAARPQLQLQESGPGLVKPSETLSLTCTVSGDSISSGDYYWGWIRQPPGKGLEWIGHIYYSGVTYYNPSLKSRVTISVDTSRNQFSLKLSSVTAADTAVYYCTREDSSNWRSRGQGTLVTVSSLEDKTHTCPPCPAPIKTDVITMDPKDNCSKDANDTLLLQLTNTSAYYMYLLLLLKSVVYFAIITCCLLRRTAFCCNGEKSRAKRSGSGATNFSLLKQAGDVEENPGPTSMDWIWRILFLVGAATGAHSFEVQLVESGGGVVQPGRSLRLSCAASGFSFSGYGMHWVRQAPGKGLEWVAYISYDGSNKYYADSVKGRFTISRDNSKNTLYLQMNSLRAEDTAVYYCAKDPAWGLRLGESSSYDFDIWGQGTMVTVSSTRDKTHTCPPCPAIPEDTFFPSPESSCDVKLVEKSFETDTNLNFQNLSVIGFRILLLKVAGFNLLMTLRLWSSRAKRSGSGVKQTLNFDLLKLAGDVESNPGPSRGHMTEYKPTVRLATRDDVPRAVRTLAAAFADYPATRHTVDPDRHIERVTELQELFLTRVGLDIGKVWVADDGAAVAVWTTPESVEAGAVFAEIGPRMAELSGSRLAAQQQMEGLLAPHRPKEPAWFLATVGVSPDHQGKGLGSAVVLPGVEAAERAGVPAFLETSAPRNLPFYERLGFTVTADVEVPEGPRTWCMTRKPGA

Test system: LNCaP cells
Test: JNG assay, co-culture with LNCaP cells
Type: cell-based
Conditions: for NFAT-GFP ASSAY: LNCaP: co-culture with LNCaP
Description: Cellular supernatant is collected and assayed for the induction of cytokines (e.g., IL2).
JNG (Jurkat cells expressing EGFP under an NFAT promoter) were infected with lentiviral vectors encoding different single chain and multi-chain SARs by spinfection in the presence of 8 µg/ml of Polybrene® (Sigma, Catalog no. H9268). The Jurkat-NFAT-GFP cells are engineered in such a way that the IL-2 promoter, which carries NFAT binding sites, is cloned upstream of the GFP gene. These cells have been used to study signaling via TCR and CAR. The different SARs were stably expressed in Jurkat NFAT-GFP cells by lentiviral mediated gene transfer, followed by selection with puromycin or blasticidin. No drug selection was used in case the construct lacked an antibiotic resistance gene. The SAR-expressing Jurkat-NFAT-GFP cells were cocultured with the target cells at E:T ratio of approximately 1:2 for approximately 4 hours to 18 hours. When the interaction between SIRs and their target antigen results in activation of the NFAT pathway, GFP expression is induced. […] GFP expression was monitored by FACS analysis. The Jurkat-NFAT-GFP (parental) cells were used as control. The structure of different constructs can be determined based on their names. For example, the construct CD8SP-CD19-hu-mROO5-1-vL-[hTCRa-C SDVP]-F-F2A-Spe-IgHSP-Apa-CD20-vHH-2HCD25-G4S-CDl9-hu-mROO5-1-vH-Mlu-[hTCRb-KACIAH]-F-P2A-PAC has the following modules from 5′ to 3′ direction: a CD8 signal peptide (CD8SP), the CD19 targeting hu-mROO5-1 vL fragment (CD19-hu-mROO5-1), Xho1 cloning site, human TCRa constant chain containing CSDVP mutations (hTCRa-CSDVP), Furine cleavage site (F), F2A ribosomal skip sequence (F2A), SpeI site, human IgH signal peptide (IgHSP), Apa I restriction enzyme site, camelid CD20-2HCD25-VHH module targeting CD20, BamHI restriction enzyme site, Glycinex4-serine linker (G4S), BstI restriction enzyme site, CD19-hu-mROO5-1-vH fragment targeting CD19, Mlu I restriction enzyme site, human TCRb constant chain containing KACIAH mutations ([hTCRb-KACIAH]), Furine cleavage site (F), P2A ribosomal skip sequence and Puromycin resistance gene (PAC). The sequence of the other constructs in the table can be similarly determined from their names and by referring to the different Tables of this disclosure that provide the names and SEQ ID NO of the different modules. Alternatively, the composition and modular architecture of the different SAR constructs can be determined from their sequences by bioinformatics tools, including using nucleic acid and amino acids homology searches. A SAR is considered positive in the assay in case the SAR expressing Jurkat-NFAT-GFP cells show greater % GFP positive cells when cultured with the target cell line as compared to parental Jurkat-NFAT-GFP cells. The signs +/-, +, 2+ etc. after the name of the cell lines indicate the relative degree of positivity on the Jurkat-NFAT-GFP assay as measured by the % GFP positive cells after culture of the SAR expressing Jurkat-NFAT-GFP cells with that cell line above the % GFP cells observed in parental Jurkat NFAT-GFP cells serving as controls. In general, the number +/-, +, 2+, 3+, 4+, 5+ refer to approximately 5%, 10%, 20%, 30%, 40% and 50% GFP positive cells. The % of GFP induction in the above assay is dependent not only the relative strength of the SAR but also, among other factors, on the relative level of expression of the SAR in the JNG cells and the relative level of expression of the target antigen in the target cell line. To control for the difference in gene transduction efficiency of the different SAR constructs, the experiment was conducted with JNG cells transduced with SAR constructs co-expressing a drug resistance gene (e.g., puromycin or PAC) followed by drug selection to generate a stable population of SAR-expressing cells. […]

| Molecule | NFAT-GFP ASSAY: LNCaP | NFAT-GFP ASSAY: LNCaP with PSMA-USC76-chVH-EZIP (LNCaP in presence of SAR adaptor PSMA-USC76-chVH-EZIP) |
| --- | --- | --- |
| B1 | +/- (refer to approximately 5%, 10%, 20%, 30%, 40% and 50% GFP positive cells) |  |
| B2 | +/- (refer to approximately 5%, 10%, 20%, 30%, 40% and 50% GFP positive cells) |  |
| B3 | +/- (refer to approximately 5%, 10%, 20%, 30%, 40% and 50% GFP positive cells) |  |
| B4 |  | +1 |
| B5 | + (refer to approximately 5%, 10%, 20%, 30%, 40% and 50% GFP positive cells) |  |
